Laboratory results reported in patent US7482016B2, “Immunogenic compositions comprising HIV-1 acetylated Tat polypeptides” (The J. David Gladstone Institutes, priority 2003, dated 2009).

B1: Tat: synthetic unacetylated 72-amino acid Tat, sequence derived from isolate HIV-1BRU (peptide)
chain: MEPVDPRLEPWKHPGSQPKTACTTCYCKKCCFHCQVCFTTKALGISYGRKKRRQRRRPPQGSQTHQVSLSKQ
B2: AcTat: synthetic Tat protein (HIV-1BRU sequence, 72 amino acids) containing a single acetylated lysine at position 50 (peptide)
chain: B1 chain

Legend:
[1] = system: Tat transactivation of the HIV LTR in HeLa-Tat cells; assay: Nuclear microinjection of HIV LTR-luciferase reporter, Tat transactivation; format: cell-based; conditions: 8 μM solution microinjected into HeLa-Tat cells, three independent experiments
Procedure: Microinjection experiments were previously described (Dorr et al. (2002), supra). Microinjection was performed at room temperature with a Zeiss automated injection system (Carl Zeiss, Oberkochen, Germany). Samples were prepared as a […] injection mix containing the luciferase reporter constructs (100 ng/ml) and CMV-GFP (50 ng/ml) constructs in sterile water or phosphate buffer. In individual experiments α-AcARM or preimmune immunoglobulins (5 mg/ml), Lys-CoA (8 μM) or synthetic Tat (30 μg/ml) were included in the mix. Four hours after injection, cells were examined on a Zeiss Axiovert microscope to determine the number of GFP-positive cells, washed in cold phosphate buffer and stored at −70° C. for luciferase assays (Promega). The α-p24 monoclonal antibody (183-H12-5C) was used in control microinjections with α-AcARM mAbs and was obtained through the AIDS Research and Reference Reagent Program, NIH (Chesebro et al. (1992) J Virol 66, 6547-6554). […]
FIGS. 3A-D. (FIG. 3A) Microinjection of the p300-HAT inhibitor Lys-CoA (8 μM), HIV LTR-luciferase and CMV-GFP into HeLa or HeLa-Tat cells. Each value is expressed as a percentage of the value obtained in control cells, injected with LTR-luciferase and CMV-GFP alone. […]

[2] = system: TAR-mutant LTR-luciferase, RSV LTR-luciferase, 5×UAS/Gal4-VP16, CMV-GFP, LTR alone in HeLa cells; assay: Microinjection control experiments with Tat-independent reporters; format: cell-based
Procedure: Microinjection was performed at room temperature with a Zeiss automated injection system (Carl Zeiss, Oberkochen, Germany). Samples were prepared as a 20111 injection mix containing the luciferase reporter constructs (100 ng/ml) and CMV-GFP (50 ng/ml) constructs in sterile water or phosphate buffer. In individual experiments α-AcARM or preimmune immunoglobulins (5 mg/ml), Lys-CoA (8 μM) or synthetic Tat (30 μg/ml) were included in the mix. Four hours after injection, cells were examined on a Zeiss Axiovert microscope to determine the number of GFP-positive cells, washed in cold phosphate buffer and stored at −70° C. for luciferase assays (Promega).
A GFP-expressing construct (CMV-GFP) was coinjected to count the number of injected cells before analysis of luciferase activity.

[3] = system: p300-dependent transcription of MyoD RNA; conditions: microinjected into nuclei of oocytes; cited from earlier work
[4] = system: Jurkat T cells expressing FLAG-tagged Tat from the HIV LTR; assay: Western blot of lysates of Jurkat T cells expressing FLAG-tagged Tat after TSA; format: cell-based; conditions: 400 nM TSA, 16 hours
Procedure: Immunoglobulin G were purified on Gammabind Plus Sepharose (Amersham).
Next, cellular extracts were analyzed with anti-AcARM antibodies. A cell line was generated that constitutively expressed a FLAG-tagged Tat protein from the HIV LTR by transducing Jurkat T cells with a Tat-encoding lentiviral vector (Jordan et al., 2001, supra). Following treatment with trichostatin A (TSA), a specific inhibitor of cellular HDACs, AcTat was detected by western blot analysis with anti-AcARM mAbs in cells expressing Tat, but not in control cells expressing GFP (FIG. 1D). To enhance the signal, immunoprecipitation was performed with anti-FLAG monoclonal antibodies before western blot analysis. Again, AcTat was detected in Tat-expressing, but not in GFP control cells (FIG. 1E). Expression of AcTat was enhanced when cells were treated with TSA.

HIV TAR RNA = assay: RNA gel mobility shift assay; format: binding; conditions: for effect of mutations in the loop of TAR on binding: TARΔLoop probe; for binding to wild-type TAR RNA: absence of CyclinT1; for effect of addition of CyclinT1 on affinity for wild-type TAR RNA: recombinant CyclinT1 present
Procedure: (§1) TAR RNAs were synthesized from HindIII-linearized pGEM3Zf-TAR constructs, which contained an oligonucleotide corresponding to the HIVLAI TAR sequence (nucleotides +17 to +44) ligated into the EcoR1-HindIII cloning sites, downstream of the T7 RNA polymerase start site. In the TARΔbulge construct, thymidine 23 was replaced with an adenosine, and the TARΔloop construct contained C30→A, T31→G, and G33→T mutation. In vitro transcription reactions were performed with the Riboprobe system (Promega, Madison, Wis.) with 1 μg of linearized plasmids and 50 μCi of ^32P-CTP (20 μCi/μl; Amersham Pharmacia Biotech). Transcripts were treated with 2 U DNAse I (Promega), extracted with a phenol:chloroform mixture, and purified over a Nick column (Amersham Pharmacia Biotech). Gel mobility reactions (final volume, 16 μl) were carried out at 30° C. as described (Wei et al. (1998) Cell 92, 451-462) with 2×10^4 cpm TAR probes/reaction with indicated concentrations of Tat proteins and 160 ng of GST-cleaved CyclinT1 (amino acids 1-303) (Garber et al. (1998) Curr Opin Immunol 11, 460-465). RNA-binding complexes were separated on a pre-run 4% Tris-glycine gel.
(§2) FIGS. 4A-D. (FIG. 4A) Bulge-dependent binding of Tat to TAR. Radiolabeled riboprobes corresponding to the HIV TAR element or a mutated form (TARΔBulge) were incubated with 0, 40, 80 and 160 ng of Tat and analyzed on a 4% Tris-glycine gel. (FIG. 4B) High-affinity binding of AcTat to TAR RNA, but […]. The wild-type TAR probe was incubated with increasing amounts of synthetic Tat or AcTat (0, 1.6 ng, 8 ng, 40 ng, and 200 ng) in the absence or presence of recombinant CyclinT1. The same experiment with a mutated TAR RNA probe containing mutations in the apical loop is shown below (TARΔLoop). (FIG. 4C) Binding of AcTat to CyclinT1 in the absence of TAR. Increasing amounts (0, 0.5 μg, 1 μg, and 2 μg) of Tat or AcTat were incubated with GST-CyclinT1, Tat-binding-deficient GST-CyclinT1 (C261A) or GST alone. Bound proteins were analyzed with monoclonal anti-Tat antibodies, directed against the N-terminus of Tat. 50% of input Tat proteins are shown. (FIG. 4D) Binding of Tat and AcTat to RNAPII. Biotinylated Tat or AcTat proteins (0, 1, 2, 4, 8 μg) were incubated with nuclear extracts, precipitated with streptavidin-sepharose and analyzed with modification-specific antibodies directed against the CTD of RNAPII. AcTat was detected with monoclonal anti-AcARM antibodies. Both Tat proteins reacted with horseradish peroxidase-conjugated streptavidin (SA-HRP).

Tat/TAR/CyclinT1 complex = biological target: T1, Tat/TAR/CyclinT1 complex (Homo sapiens, UniProt O60563); assay: RNA gel shift with recombinant CyclinT1, ternary complex formation; format: binding; conditions: presence of CyclinT1
T1 construct: 160 ng of GST-cleaved CyclinT1 (amino acids 1-303); GST (N, cleaved yes); made in house
T1 sequence (O60563 1-303, one chain of several): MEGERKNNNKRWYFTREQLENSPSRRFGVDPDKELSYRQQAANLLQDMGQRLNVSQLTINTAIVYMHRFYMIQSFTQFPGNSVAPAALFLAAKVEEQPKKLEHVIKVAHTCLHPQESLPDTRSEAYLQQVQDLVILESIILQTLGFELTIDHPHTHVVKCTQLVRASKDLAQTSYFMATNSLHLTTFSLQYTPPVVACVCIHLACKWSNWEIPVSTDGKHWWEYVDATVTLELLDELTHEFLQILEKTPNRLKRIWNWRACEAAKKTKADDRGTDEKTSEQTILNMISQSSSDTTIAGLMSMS
Procedure: as §1, with “Gel mobility reactions (final volume, 16 μl) were carried out at 30° C. as described (Wei et al. (1998) Cell 92, 451-462) with 2×10^4 cpm TAR probes/reaction with indicated concentrations of Tat proteins and 160 ng of GST-cleaved CyclinT1 (amino acids 1-303) (Garber et al. (1998) Curr Opin Immunol 11, 460-465). RNA-binding complexes were separated on a pre-run 4% Tris-glycine gel.” left out
FIGS. 4A-D. (FIG. 4A) Bulge-dependent binding of Tat to TAR. Radiolabeled riboprobes corresponding to the HIV TAR element or a mutated form (TARΔBulge) were incubated with 0, 40, 80 and 160 ng of Tat and analyzed on a 4% Tris-glycine gel. […] Bound proteins were analyzed with monoclonal anti-Tat antibodies, directed against the N-terminus of Tat. […] Biotinylated Tat or AcTat proteins (0, 1, 2, 4, 8 μg) were incubated with nuclear extracts, precipitated with streptavidin-sepharose and analyzed with modification-specific antibodies directed against the CTD of RNAPII. AcTat was detected with monoclonal anti-AcARM antibodies. […]

GST-CyclinT1 [5] = biological target: T2, GST-CyclinT1 (Homo sapiens, UniProt O60563); assay: GST binding (pulldown) assay; conditions: absence of TAR
T2 construct: Full-length GST-CyclinT1, GST-CyclinT1C261A or GST alone were expressed in the BL21 strain of Escherichia coli; made in house; host or cells: Escherichia coli BL21
T2 sequence (O60563 whole entry): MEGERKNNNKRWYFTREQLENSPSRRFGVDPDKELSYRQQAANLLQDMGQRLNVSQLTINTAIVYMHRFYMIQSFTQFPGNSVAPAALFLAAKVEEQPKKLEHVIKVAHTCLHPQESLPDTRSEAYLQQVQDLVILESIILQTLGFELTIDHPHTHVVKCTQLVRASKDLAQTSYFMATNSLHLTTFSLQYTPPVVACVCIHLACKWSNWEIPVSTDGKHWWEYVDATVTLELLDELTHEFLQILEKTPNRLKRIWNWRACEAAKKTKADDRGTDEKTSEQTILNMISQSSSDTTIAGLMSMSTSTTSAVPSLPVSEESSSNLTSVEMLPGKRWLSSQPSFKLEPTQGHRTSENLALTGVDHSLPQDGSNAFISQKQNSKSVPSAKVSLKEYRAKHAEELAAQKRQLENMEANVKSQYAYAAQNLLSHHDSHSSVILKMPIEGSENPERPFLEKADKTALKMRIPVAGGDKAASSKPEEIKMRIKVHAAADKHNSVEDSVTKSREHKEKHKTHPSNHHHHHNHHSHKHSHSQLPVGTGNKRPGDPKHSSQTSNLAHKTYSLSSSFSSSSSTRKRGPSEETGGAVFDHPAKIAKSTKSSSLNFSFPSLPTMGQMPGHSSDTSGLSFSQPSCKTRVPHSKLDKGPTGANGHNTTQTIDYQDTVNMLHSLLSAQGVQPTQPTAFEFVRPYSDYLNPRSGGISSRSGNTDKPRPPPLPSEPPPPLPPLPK
Procedure: (§3) Full-length GST-CyclinT1, GST-CyclinT1C261A or GST alone were expressed in the BL21 strain of Escherichia coli and purified on glutathione-Sepharose beads (Amersham Pharmacia Biotech) as described (Herrmann and Rice (1993) Virology 197, 601-608). For binding assays ˜1 μg of bead-coupled GST-CyclinT1, GST-CyclinT1C261A or GST alone was incubated with Tat and AcTat in 100 μl modified Buffer C for 3.5 hr at 4°. Buffer C is described in (Fujinaga et al. (1999) Proc. Natl. Acad. Sci. USA 96, 1285-1290) and was used without ZnCl2 and SDS. Beads were washed three times with modified Buffer C containing 1M KCl, boiled in Laemmli buffer and supernatant was analyzed by immunoblotting using monoclonal anti-Tat antibodies (clone AC11.AE12; CPR Inc.).
as §2

GST-CyclinT1 [6] = biological target: T3, GST-CyclinT1 (Homo sapiens, UniProt O60563, C261A); assay: GST binding (pulldown) assay
T3 construct: Full-length GST-CyclinT1, GST-CyclinT1C261A or GST alone were expressed in the BL21 strain of Escherichia coli; made in house; host or cells: Escherichia coli BL21
T3 sequence (O60563 whole entry C261A): as the sequence (O60563 whole entry) above, with C261A counted along it
Procedure: as §3, §2

RNAPII = biological target: T4, RNAPII (Homo sapiens, UniProt P24928); assay: RNA polymerase II binding in 293 nuclear extracts; conditions: biotinylated proteins
T4 construct: analyzed with modification-specific antibodies directed against the CTD of RNAPII; endogenous in cells; host or cells: 293 nuclear extract
Procedure: Synthetic biotinylated nonacetylated and acetylated Tat proteins were incubated for 2 hours with 50 μl 293 nuclear extracts prepared according to (Dignam et al. (1983) Methods Enzymol. 101, 582-598) in buffer conditions described in (Mavankal et al., (1996) Proc. Natl. Acad. Sci. USA 93, 2089-2094). Complexes were collected with streptavidin-sepharose beads, separated by SDS-PAGE electrophoresis and analyzed with α-RNAPII antibodies (clones H14 and 8WG16; CPR Inc) or with α-AcARM mAbs and HRP-conjugated Streptavidin (Jackson Immunoresearch Laboratories).
as §2

Row | Molecule | inhibition of Tat activity on the HIV LTR [1] | effect on the LTR alone ([2]; coinjected into HeLa cells (no Tat)) | effect on coinjected CMV-GFP reporter ([2]; same concentration (8 μM)) | p300-dependent transcription of MyoD RNA [3] | Tat expression (anti-FLAG immunodetection) [4] | expression of AcTat ([4]; anti-FLAG immunoprecipitation, anti-AcARM blot) | binding to bulge-mutant TAR RNA (HIV TAR RNA; TARΔBulge probe) | effect of mutations in the loop of TAR on binding (HIV TAR RNA) | binding to wild-type TAR RNA (HIV TAR RNA) | effect of addition of CyclinT1 on affinity for wild-type TAR RNA (HIV TAR RNA) | formation of the Tat/TAR/CyclinT1 ternary complex (Tat/TAR/CyclinT1 complex) | binding to wild-type GST-CyclinT1 (GST-CyclinT1 [5]) | binding to mutant CyclinT1 (C261A) or GST alone (GST-CyclinT1 [6]) | binding to nonphosphorylated RNAPII (RNAPII) | concentration at which retarded bands form, relative to unacetylated Tat (HIV TAR RNA; wild-type TAR probe) | interaction with hyperphosphorylated RNAPII complex (RNAPII)
1 | CC(=O)N[C@@H](CCCCNC(=O)CSCCNC(=O)CCNC(=O)[C@H](O)C(C)(C)COP(=O)(O)OP(=O)(O)OC[C@H]1O[C@@H](n2cnc3c(N)ncnc32)[C@H](O)[C@@H]1OP(=O)(O)O)C(N)=O [Lys-CoA] | 60-70% | no effect | no effect | efficiently blocked |  |  |  |  |  |  |  |  |  |  |  | 
2 | CC(/C=C/C(=O)NO)=C\[C@@H](C)C(=O)c1ccc(N(C)C)cc1 [TSA, trichostatin A] |  |  |  |  | overall upregulation | enhanced |  |  |  |  |  |  |  |  |  | 
3 | B1 |  |  |  |  |  |  | blocked | little effect | high affinity | did not alter | formed the expected Tat/TAR/CyclinT1 complex | equal affinities | Neither Tat nor AcTat bound | no binding |  | 
4 | B2 |  |  |  |  |  |  |  | little effect | affinities equal to that of unacetylated Tat | did not alter | could not | equal affinities | Neither Tat nor AcTat bound | no binding | one-third | higher affinity than Tat
